# Measured values from patent US20200283508A1 (TEXAS A AND M UNIVERSITY SYSTEM, published 2020).
# Where two headings read alike, the source gives them in different places.
# B1: LIG40-D8 (scFv, V domains shown)
# VH: EVQLVESGGGVVQPGRSLRLSCAASGFTFSSYGMHWVRQAPGKGLEWVAVIWYDGSNKYYADSVKGRFTISRDNSKNTLYLQMNSLRAEDTAVYYCARDYHGDGFDYWGQGTLVTVSS
# VL: DIQMTQSPSSLSASVGDTVTITCRASQDINNYLAWFQQKPGKAPKSLISAASSLQNGVPLRFSGSASGADFTLTISGLQPEDSGTYYCQQYDVFPITFGPGTKVDIK
# B2: FBE5-D9 (scFv, V domains shown)
# VH: QVQLVESGGGVVQPGRSLRLSCAASGFTFSSYGMHWVRQAPGKGLEWVAVISYDGSNKYYADSVKGRFTISRDNSKNTLYLQMNSLRAEDTAVYYCAKNQEWLVPGYWGQGTLVTVSS
# VL: QSALTQPASVSGSPGQSITISCTGTSSDVGGYNYVSWYQQHPGKAPKLMIYDVSNRPSGVSNRFSGSKSGNTASLTISGLQAEDEADYYCSSYTSSSTLVFGGGTKLTVL
# B3: FBE5-E5 (scFv, V domains shown)
# VH: QMQLVQSGGGVVQPGRSLRLSCAASGFTFSSYGMHWVRQAPGKGLEWVAVISYDGSNKYYADSVKGRFTISRDNSKNTLYLQMNSLRGEDTAVYYCAREGGWEPNGLDYWGQGTLVTVSS
# VL: QSVLTQPPSVSAAPGQKVTISCSGSSSNIGNNYVSWYQQLPGTAPKLLIYDNNKRPSGIPDRFSGSKSGTSATLGITGLQTGDEADYYCGTWDSSLSAEVFGGGTKLTVL
# B4: FBE5-D10 (scFv, V domains shown)
# VH: QVQLVQSGGGVVQPGRSLRLSCAASGFTFSNYGMHWVRQAPGKGLEWVAVISYDGSNKYYADSVKGRFTISRDNSKNTLYLQMNSLRAEDTAVYYCAKDSREQWLAHWGQGTLVTVSS
# VL: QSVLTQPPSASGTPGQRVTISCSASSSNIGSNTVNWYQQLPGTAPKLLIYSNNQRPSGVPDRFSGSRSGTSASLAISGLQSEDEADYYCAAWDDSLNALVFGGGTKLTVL
# Columns and labels:
# [1] = target: T1, recombinant Efb-O (Efb 68-98) (Staphylococcus aureus strain Newman, UniProt P08515 1-218 = GST); test: solid-phase binding assay, titration (FIG. 24)
# [2] = target: T2, Efb-A30-67 (Staphylococcus aureus strain Newman, UniProt P08515 1-218 = GST; A6QG59 30-67); test: solid-phase binding assay, titration (FIG. 24)
# [3] = target: T3, Efb-N30-105 (Staphylococcus aureus strain Newman, UniProt A6QG59 30-105); test: solid-phase binding assay, titration (FIG. 24)
# T3 sequence: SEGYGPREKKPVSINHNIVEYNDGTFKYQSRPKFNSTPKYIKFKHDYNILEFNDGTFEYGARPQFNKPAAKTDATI
# [4] = target: T4, BSA (bovine, UniProt P02769 25-607); test: solid-phase binding assay (FIG. 24)
# T4 construct: also called bovine serum albumin
# T4 sequence (P02769 25-607 limits assumed): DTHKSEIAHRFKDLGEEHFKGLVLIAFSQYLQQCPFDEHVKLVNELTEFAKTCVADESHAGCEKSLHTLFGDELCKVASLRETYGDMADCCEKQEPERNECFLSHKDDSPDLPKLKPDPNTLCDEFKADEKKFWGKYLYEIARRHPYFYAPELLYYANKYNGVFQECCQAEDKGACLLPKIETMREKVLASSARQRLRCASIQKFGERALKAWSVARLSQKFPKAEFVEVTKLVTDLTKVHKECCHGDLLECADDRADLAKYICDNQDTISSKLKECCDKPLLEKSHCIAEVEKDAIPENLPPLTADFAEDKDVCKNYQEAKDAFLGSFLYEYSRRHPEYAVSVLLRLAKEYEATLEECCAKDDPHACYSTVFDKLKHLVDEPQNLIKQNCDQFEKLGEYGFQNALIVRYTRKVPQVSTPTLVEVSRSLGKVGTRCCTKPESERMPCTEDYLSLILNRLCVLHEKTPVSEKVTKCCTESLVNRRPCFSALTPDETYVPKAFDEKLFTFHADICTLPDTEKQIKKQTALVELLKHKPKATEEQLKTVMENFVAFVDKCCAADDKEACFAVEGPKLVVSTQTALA
# [5] = target: T5, Coa-C (Coa 311-636) (Staphylococcus aureus strain Newman, UniProt P08515 1-218 = GST); test: apparent Kd from half-maximal binding in ELISA (GraphPad Prism); column head prints M, the text prints µM
# T5 construct: also called rCoa-C; Coa-C311-636
# [6] = target: T6, Coa-R (Coa 506-636) (Staphylococcus aureus strain Newman); test: apparent Kd from half-maximal binding in ELISA (GraphPad Prism)
# Method: (§1) As well, binding was tested against Coa fragments, namely Coa-C₃₁₁₋₆₃₆, Coa-F₃₁₁₋₅₀₅, Coa-R0₄₇₄₋₅₀₅ and Coa-R₅₀₆₋₆₃₆. Recombinant proteins Efb-N₃₀₋₁₀₅, Efb-A₃₀₋₆₇, Efb-O₆₈₋₉₈, Coa-C₃₁₁₋₆₃₆, Coa-F₃₁₁₋₅₀₅, Coa-R0₄₇₄₋₅₀₅ and Coa-R₅₀₆₋₆₃₆ were diluted in 50 mM sodium carbonate pH 9.6 and immobilized at the concentration of 200 ng/well for 1 hour at room temperature. Immobilized proteins were probed for recognition in a solid-phase binding assay with different quantities of LIG40 antibodies after blocking and washing. After washing, varying concentrations of LIG40 scFv-Fc antibodies were diluted in 2% BSA+1×PBS+0.05% Tween-20 and incubated with the immobilized proteins for 1 hour at room temperature with shaking at 250 rpm. Bound scFv-Fcs were detected using polyclonal α-human IgG HRP-conjugated Ab diluted to 1:10000 in 2% BSA+1×PBS+0.05% Tween-20. HRP-conjugated Ab was incubated for 1 hour at room temperature with shaking at 250 rpm. HRP signal was developed with Sigma FAST-OPD using manufacturers guidelines.
# [7] = target: T7, Coa-F (Coa 311-505) (Staphylococcus aureus strain Newman, UniProt P08515 1-218 = GST); test: as above
# Method: as §1
# [8] = target: T8, Coa-R0474-505 (recombinant protein) (Staphylococcus aureus strain Newman); test: as above
# T8 chain: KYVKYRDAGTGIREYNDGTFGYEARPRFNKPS
# Method: as §1
# [9] = target: T6, Coa-R (Coa 506-636)
# [10] = target: T5, Coa-C (Coa 311-636)
# [11] = target: T7, Coa-F (Coa 311-505)
# [12] = target: T1, recombinant Efb-O (Efb 68-98)
# [13] = target: T3, Efb-N30-105
# [14] = target: T1, recombinant Efb-O (Efb 68-98); test: apparent Kd from half-maximal binding in ELISA (GraphPad Prism)
# [15] = target: T2, Efb-A30-67; test: as above
# [16] = target: T3, Efb-N30-105; test: as above
# [17] = target: T6, Coa-R (Coa 506-636); test: ELISA, antigen coated 200 ng/well, scFv-Fc at 0.5 µg/ml
# [18] = target: T5, Coa-C (Coa 311-636); remark: listed apart in the source
# [19] = target: T7, Coa-F (Coa 311-505); remark: listed apart in the source
# [20] = target: T8, Coa-R0474-505 (recombinant protein)
# [21] = target: T5, Coa-C (Coa 311-636); test: apparent Kd from half-maximal binding in ELISA (GraphPad Prism)
# [22] = target: T7, Coa-F (Coa 311-505); test: as above; remark: listed apart in the source
# [23] = target: T8, Coa-R0474-505 (recombinant protein); test: as above
# [24] = target: T3, Efb-N30-105; test: ELISA, antigen coated 200 ng/well, scFv-Fc at 0.5 µg/ml
# [25] = target: T2, Efb-A30-67
Binder,EC50 (read off the curve) [12] [µg/mL],EC50 (read off the curve) [13] [µg/mL],Kd [14] [nM],Kd [15] [nM],Kd [16] [nM],binding result [17],EC50 (read off the curve) [18] [µg/mL],EC50 (read off the curve) [19] [µg/mL],EC50 (read off the curve) [20] [µg/mL],Kd [21] [nM],Kd [22] [nM],Kd [23] [nM],also measured
B1,,,,,,,,,,,,,binding result [1]: no binding; binding result [2]: no binding; binding result [3]: no binding; binding result [4]: no binding; Kd [5]: 0.0939 nM; Kd [6]: 0.0862 nM; Kd [7]: 0.112 nM; Kd [8]: 2.52 nM; EC50 (read off the curve) [9]: ~0.01 µg/mL; EC50 (read off the curve) [10]: ~0.01 µg/mL; EC50 (read off the curve) [11]: ~0.01 µg/mL
B2,~0.3,~0.1,2.68,4.48,1.31,no binding (tested: 0.5 µg/ml),~0.08,~0.06,~0.1,0.779,0.536,1.14,
B3,,,434,,,no binding (tested: 0.5 µg/ml),,,,6.27,9.5,864,binding result [24]: binds
B4,~0.3,~0.2,3.65,1.57,1.97,no binding (tested: 0.5 µg/ml),~0.1,~0.09,~0.08,1.4,0.95,0.856,EC50 (read off the curve) [25]: ~0.1 µg/mL
